Substrate in the data set: BHET
Conditions: 120 h.

B1: unnamed (protein)
chain: MNSHRASRLVRAALAAGALLLSAAASAQTNPYQRGPNPTASSLEASRGPFSVRSFTVSRPSGYGAGTVYYPTNAGGTVGAIAIVPGFTARQSSINWWGPRLASHGFVVITIDTNSTLDQPSSRSSQQMAALRQVATLSGTSSSPIYNKVDTSRLGVMGWSMGGGGSLISARNNPSLKAAAPQAPWNSSTNFSSVTVPTLIIACENDTIAPVNSHASPFYNSMSRNPKQFLEINGGSHSCANSGNSNQALLGKKGVAWMKRFMDNDTRYTSFACSNPNSTRVSDFRVASCS
B1: the plate clearing entry is reported as “not clears the plate”.

B2: unnamed (protein)
chain: MSAADRMCPFRTLLMLLGLSMMARPTRASMRRRGRHSSITTGDSMTHIAIGLRHWAQVAVLLASVAMSALAAAQNNPYAKGPDRTTADLEAELGSFAVASASIPRANASGFGGGTIYYPTASGSCGAISISPGYTATQVNIAWLGPRLASRGFVVITIDTFTTSDLPDSRATQLQAALNQAVSLSQTAGHVIYGKVDARRLAVAGDSLGGGGALLAGLNNPMLKAAVGLVPYSYTQNFSTEQVPTLMIGGQKDTTATPSKHAIAFYNSIPSTTDKAYMELAGADHYLPHRTQYFPVIGRYMIAWYKRFVDNDTRYSPFLCGAIQQADVANTALVSKYLQNCSY
Take B2: the plate clearing result is recorded as “not clears the plate”.

B3: unnamed (protein)
chain: MTIRPFVRNAVLAAGLLVGAASAQAQVAVFQENFSNGLGAFTASGTVSTGTGAARLQGCYGCTDGQIVSSAISTQGFTNLSLSFDRVTSGLYIGESGTAEFSVDGTNWTVVESTRVTSPGRVTFDLPASAAGQAALRLRFRIDARLSSETYTVDNVELTGTVGDTGGGTPGANPYAKGPDPTVALLEAGTGPFTYTRTTVSRTAASGYGGGTIYHPTGVAGPFGAIAISPGYTAYQSSISWLGERLASHGFVVITIDTFTTSDQPSSRATQLMAALRQLVAYGNTSSHPIYGKVDPNRLGVMGHSMGGGGSLIAARDNPSLKAAVPLTPWNTSSNFTAVQVPTLVVGCEADTVAPVAQHASPFYNNIPSTTKKAYLELANASHFCPVTGNGYTRLLGKYGVAWMKRFVDNDTRYSPFLCGAPHRADLSNGQLSAYRENCPY
On to B3, for which the plate clearing result is “clears the plate (z > 3 vs empty vector)”.

B4: unnamed (protein)
chain: MKSTQGSKFALSLLTAGTLLFSMSALGFNAPDPDPQPDPDPCEGDCGYTRGPDPTTSLLEASSGPYSVRTDSVSSRVSGFSGGTIYYPTGTSGRMGAIVVAPGFLSPESSISWWGPRLASHGFVVITVQINSGYDQPASRQAQMDAALDHVISESNSSSSPISGMVDSSRLGAMGWSMGGGGALRMAAGDRLSAAIPLAPWHSGRDNFDQIRTPTLIFACENDSVAPVRSHASPFYNDIPNSTSKAFFEINGGSHTCANGGRSNGDLLGRIGVSWMKRHIDQDTRYNQFLCGPNHESDGDISEYRGTCPL
For the protein B4, the plate clearing entry is “not clears the plate”.

B5: unnamed (protein)
chain: MTLTSTLRRQTRTTATATVLAAAAALALCAAPASAQQTGPNPTSSSLNATSGPFAVSSVSVVAPTGFGGGTIYYPTTAGQYGVVAISPGFTATESSIAWLGRRMATHGFVVVTINTLTTLDQPASRATQLMAALNHVVNSASSTVRSRVDPNRRAVAGHSMGGGGALIAAENNPGLKAALPLTPWNLTTNFSDVQVPTLIVGADGDTVAPAAIHARPFYASLSSSVRKAYAELNFSTHFTPNTTNTPIGRYGVTWMKRFVDGDTRYSTFLCGAEHNAYNTALVFERYSQNCPY
B5: the plate clearing result is reported as “not clears the plate”.

B6: unnamed (protein)
chain: MKITAHKTARGVANFAKASLFVAALAVTSLANAQYQKGPDPTVSALERNGSFATRSTTVSRLSASGFGGGTIYYPTASGSYGAIAVSPGFTAYQSSISWIGERLSSHGFVVITIDTITTSDQPESRGNQLKAALDKVVSLSRTSSSPLYNKVDASRLGVAGHSMGGGGTLAAARDNPSYKAAVPLAPWHTTKSWSRVSVPTLIIGGSTDAIAGVALHSIPFYTSLPSSTKKAYMELSGEGHFYPQLPSNYPIVGRYMISWFKRFMDSDTRYSPFLCGAQHQADLRLFGPFSDYRENCPY
For the protein B6, the plate clearing result was “not clears the plate”.

B7: unnamed (protein)
chain: MKTSRTRRLALAAAALLLSVAAQAQSSNPYQRGPDPTAASLEASSGPFAVSTTTVSSASGFGGGTIYYPTNTEGPFAAIAVVPGFTGTQSSISWWGPRLASHGFVVITIDTNSTFDQPDSRATQLMAALNYVVSQSNTSSSPIYGKVDSNRLGVMGHSMGGGGTLIAARDNPTLKAAIPLAPWNSSTNFSSVTVPTLIIACENDTVAPVSSHASPFYNSIPSSTDKAYLEINGGDHFCANSGNSNKAILGKYGVAWMKRFLDNDTRYDPFLCGAPHQADGSAISEYRDNCPY
B7: the plate clearing result is on record as “clears the plate (z > 3 vs empty vector)”.

These data come from the PETadex activity labels.
